Patent US20110129470A1

Target: CD33 (cell surface antigen on HL60 and NB4 cells) (UniProt P20138)
Assay: cell-based or functional assay

Sequence of HuM195-dCK conjugate (wild type dCK chemically conjugated to the humanized anti-CD33 monoclonal antibody HuM195) (B2R8V6 whole entry): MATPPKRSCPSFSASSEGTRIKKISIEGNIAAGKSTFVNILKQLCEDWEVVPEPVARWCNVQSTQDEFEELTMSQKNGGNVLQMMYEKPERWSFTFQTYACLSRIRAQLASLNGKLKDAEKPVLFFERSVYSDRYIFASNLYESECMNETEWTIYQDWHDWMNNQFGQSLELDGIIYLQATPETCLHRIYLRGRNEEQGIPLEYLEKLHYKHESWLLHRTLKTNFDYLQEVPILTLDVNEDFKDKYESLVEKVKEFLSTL
Sequence of CD33 (cell surface antigen on HL60 and NB4 cells) (P20138 18-364 limits assumed): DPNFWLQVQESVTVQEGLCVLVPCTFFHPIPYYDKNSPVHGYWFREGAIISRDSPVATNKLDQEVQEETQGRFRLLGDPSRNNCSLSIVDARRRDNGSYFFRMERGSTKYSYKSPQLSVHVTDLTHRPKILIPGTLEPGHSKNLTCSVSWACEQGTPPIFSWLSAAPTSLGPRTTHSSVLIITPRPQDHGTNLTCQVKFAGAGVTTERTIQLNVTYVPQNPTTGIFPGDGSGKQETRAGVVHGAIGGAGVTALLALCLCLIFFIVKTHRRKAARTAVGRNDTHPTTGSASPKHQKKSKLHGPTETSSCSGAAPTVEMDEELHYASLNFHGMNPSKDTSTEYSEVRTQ

Q: With “HuM195-dCK conjugate (wild type dCK chemically conjugated to the humanized anti-CD33 monoclonal antibody HuM195)” as the substance, how does the additional cell killing over AraC alone (Annexin V and propidium iodide apoptosis assay), HL60 cells read?
A: The additional cell killing over AraC alone (Annexin V and propidium iodide apoptosis assay), HL60 cells was 20%.

Q: And the cell death (Annexin V and propidium iodide apoptosis assay), HL60 cells, conjugate in combination with AraC 1 µM?
A: The cell death (Annexin V and propidium iodide apoptosis assay), HL60 cells, conjugate in combination with AraC 1 µM was 70%.

Q: What about the cell killing (apoptosis assay), NB4 cells, conjugate with AraC 250 nM of the same substance?
A: Its cell killing (apoptosis assay), NB4 cells, conjugate with AraC 250 nM is 65%.
